Test results taken from article PMC9166362, “Early midcell localization of Escherichia coli PBP4 supports the function of peptidoglycan amidases” (PLoS Genetics, 2022).

How the values were obtained:
[1] = molecular target: PBP4ΔD3 (PBP4 lacking domain 3), His-tagged (E. coli) (UniProt P24228); test: AUC; sedimentation velocity, 45,000 rpm, 20°C, 25 mM HEPES/NaOH, 150 mM NaCl, pH 7.5, about 0.25 to 1.4 mg/ml; c(s) analysis
[2] = molecular target: EnvC, soluble version without the N-terminal 34 amino acid signal peptide (E. coli) (UniProt P37690); test: MST; one protein fluorescently labelled (NT-647 dye) at a fixed concentration, two-fold serial dilution of unlabelled ligand over 16 samples; 25 mM HEPES/NaOH, 150 mM NaCl, 0.05% Triton X-100, pH 7.5; Monolith NT.115; apparent KD
[3] = molecular target: LpoA, soluble (LpoAΔ1–27) (E. coli) (UniProt P45464); test: as above
[4] = molecular target: LpoA^N, N-terminal domain of LpoA (residues G28-T256) (E. coli) (UniProt P45464); test: as above
[5] = molecular target: PBP4 (penicillin binding protein 4, DD-carboxy/endopeptidase), purified, untagged (E. coli) (UniProt P24228); test: AUC; sedimentation velocity, 45,000 rpm, 20°C, 25 mM HEPES/NaOH, 150 mM NaCl, pH 7.5, about 0.25 to 1.4 mg/ml; c(s) analysis
[6] = molecular target: T1, PBP4 (penicillin binding protein 4, DD-carboxy/endopeptidase), purified, untagged (E. coli, UniProt P24228 61-477); test: MST
T1 chain: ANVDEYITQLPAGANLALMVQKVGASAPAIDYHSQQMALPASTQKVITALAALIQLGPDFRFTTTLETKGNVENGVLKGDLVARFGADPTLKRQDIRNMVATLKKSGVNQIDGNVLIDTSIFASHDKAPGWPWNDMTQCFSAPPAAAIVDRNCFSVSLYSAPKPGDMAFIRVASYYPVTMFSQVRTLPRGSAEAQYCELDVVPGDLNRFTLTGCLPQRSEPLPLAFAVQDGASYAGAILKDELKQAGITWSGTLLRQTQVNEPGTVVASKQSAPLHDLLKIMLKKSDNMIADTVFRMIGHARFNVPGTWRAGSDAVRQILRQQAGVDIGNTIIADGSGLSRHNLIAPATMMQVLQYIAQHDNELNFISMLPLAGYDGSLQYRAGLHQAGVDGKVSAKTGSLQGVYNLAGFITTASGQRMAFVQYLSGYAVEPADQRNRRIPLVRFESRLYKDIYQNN

[7] = molecular target: T2, EnvC, soluble version without the N-terminal 34 amino acid signal peptide (E. coli, UniProt P37690 35-419); test: MST; one protein fluorescently labelled (NT-647 dye) at a fixed concentration, two-fold serial dilution of unlabelled ligand over 16 samples; 25 mM HEPES/NaOH, 150 mM NaCl, 0.05% Triton X-100, pH 7.5; Monolith NT.115; apparent KD; conditions: both partners purified
T2 construct: EnvC of E. coli, soluble version without the N-terminal, 34 amino acid long, signal peptide; the text calls it full-length EnvC; In MST fluorescently labelled (Fl-EnvC) in some runs; also called full-length EnvC; Fl-EnvC; source: E. coli BL21(DE3) pET28a-His-EnvC, purified (HisTrap, thrombin, Superdex 200)
T2 sequence (looked up): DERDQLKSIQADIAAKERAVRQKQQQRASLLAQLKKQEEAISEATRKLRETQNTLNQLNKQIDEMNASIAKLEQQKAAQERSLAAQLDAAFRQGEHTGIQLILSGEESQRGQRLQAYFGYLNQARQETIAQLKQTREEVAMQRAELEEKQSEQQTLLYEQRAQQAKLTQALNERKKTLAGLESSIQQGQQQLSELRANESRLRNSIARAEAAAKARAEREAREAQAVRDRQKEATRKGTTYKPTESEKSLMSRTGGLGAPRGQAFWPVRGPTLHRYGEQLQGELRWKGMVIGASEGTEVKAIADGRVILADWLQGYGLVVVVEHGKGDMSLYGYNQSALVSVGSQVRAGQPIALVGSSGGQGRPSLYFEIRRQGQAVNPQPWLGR

[8] = molecular target: T2, EnvC, soluble version without the …; test: pull-down; Ni-NTA beads; equimolar (1–2 μM) His-tagged and untagged proteins; 10 mM HEPES/NaOH, 10 mM MgCl2, 150 mM NaCl, 0.05% Triton X-100, pH 7.5, 4°C; washes with 30 mM imidazole; SDS-PAGE; His-NlpI also with PBP4 and EnvC together; conditions: both partners purified
[9] = molecular target: PBP4ΔD3 (PBP4 lacking domain 3), His-tagged (E. coli, UniProt P24228 21-477, PBP4Δ173–247 (domain 3)); test: MST

PBP4ΔD3 (PBP4 lacking domain 3), His-tagged (from UniProt P24228 21-477) (enzyme)
stoichiometry N [1]: 2
Kd [2]: > 5900 nM
Kd [3]: 153 nM
fold decrease of app. KD against PBP4 [4]: 50 fold

PBP4 (penicillin binding protein 4, DD-carboxy/endopeptidase), purified, untagged (from UniProt P24228 61-477) (enzyme)
stoichiometry N [5]: 2
Kd [2]: 307 nM
Kd [3]: 315 nM

B1: NlpI, soluble, as used in microscale thermophoresis (natural protein, E. coli, UniProt P0AFB1 19-294, looked up)
chain: CSNTSWRKSEVLAVPLQPTLQQEVILARMEQILASRALTDDERAQLLYERGVLYDSLGLRALARNDFSQALAIRPDMPEVFNYLGIYLTQAGNFDAAYEAFDSVLELDPTYNYAHLNRGIALYYGGRDKLAQDDLLAFYQDDPNDPFRSLWLYLAEQKLDEKQAKEVLKQHFEKSDKEQWGWNIVEFYLGNISEQTLMERLKADATDNTSLAEHLSETNFYLGKYYLSLGDLDSATALFKLAVANNVHNFVEHRYALLELSLLGQDQDDLAESDQQ
notes: NlpI, outer membrane lipoprotein of E. coli, 'Soluble NlpI construct'; In some MST runs fluorescently labelled (Fl-NlpI); also called Fl-NlpI; source: purified from overexpression strain according to published procedures [55]; (plasmid pET28a-His-NlpI)
Kd [6]: 177 nM
binding result [7]: binds

B2: His-NlpI (oligo-histidine tagged soluble NlpI) (natural protein, E. coli, UniProt P0AFB1 19-294, looked up)
chain: B1 chain
notes: NlpI, outer membrane lipoprotein of E. coli, 'Soluble NlpI construct'; Bait on Ni-NTA beads; also called oligohistidine-tagged-NlpI; source: purified from overexpression strain according to published procedures [55]; (plasmid pET28a-His-NlpI); not shown: His, N-terminal, kept
binding result [8]: binds

B3: LpoA^N, N-terminal domain of LpoA (residues G28-T256) (domain or fragment)
chain: GTHTPDQSTAYMQGTAQADSAFYLQQMQQSSDDTRINWQLLAIRALVKEGKTGQAVELFNQLPQELNDAQRREKTLLAVEIKLAQKDFAGAQNLLAKITPADLEQNQQARYWQAKIDASQGRPSIDLLRALIAQEPLLGAKEKQQNIDATWQALSSMTQEQANTLVINADENILQGWLDLQRVWFDNRNDPDMMKAGIADWQKRYPNNPGAKMLPTQLVNVKAFKPAST
Kd [9]: 17 nM
Kd [6]: 954 nM

B4: LpoA^C, C-terminal domain of LpoA (residues N257-S678) (domain or fragment)
chain: NKIALLLPLNGQAAVFGRTIQQGFEAAKNIGTQPVAAQVAAAPAADVAEQPQPQTVDGVASPAQASVSDLTGEQPAAQPVPVSAPATSTAAVSAPANPSAELKIYDTSSQPLSQILSQVQQDGASIVVGPLLKNNVEELLKSNTPLNVLALNQPENIENRVNICYFALSPEDEARDAARHIRDQGKQAPLVLIPRSSLGDRVANAFAQEWQKLGGGTVLQQKFGSTSELRAGVNGGSGIALTGSPITLRATTDSGMTTNNPTLQTTPTDDQFTNNGGRVDAVYIVATPGEIAFIKPMIAMRNGSQSGATLYASSRSAQGTAGPDFRLEMEGLQYSEIPMLAGGNLPLMQQALSAVNNDYSLARMYAMGVDAWSLANHFSQMRQVQGFEINGNTGSLTANPDCVINRNLSWLQYQQGQVVPVS
Kd [9]: 315 nM
Kd [6]: 226 nM

B5: PBP1A, purified (full length His-PBP1A) (enzyme)
chain: MKFVKYFLILAVCCILLGAGSIYGLYRYIEPQLPDVATLKDVRLQIPMQIYSADGELIAQYGEKRRIPVTLDQIPPEMVKAFIATEDSRFYEHHGVDPVGIFRAASVALFSGHASQGASTITQQLARNFFLSPERTLMRKIKEVFLAIRIEQLLTKDEILELYLNKIYLGYRAYGVGAAAQVYFGKTVDQLTLNEMAVIAGLPKAPSTFNPLYSMDRAVARRNVVLSRMLDEGYITQQQFDQTRTEAINANYHAPEIAFSAPYLSEMVRQEMYNRYGESAYEDGYRIYTTITRKVQQAAQQAVRNNVLDYDMRHGYRGPANVLWKVGESAWDNNKITDTLKALPTYGPLLPAAVTSANPQQATAMLADGSTVALSMEGVRWARPYRSDTQQGPTPRKVTDVLQTGQQIWVRQVGDAWWLAQVPEVNSALVSINPQNGAVMALVGGFDFNQSKFNRATQALRQVGSNIKPFLYTAAMDKGLTLASMLNDVPISRWDASAGSDWQPKNSPPQYAGPIRLRQGLGQSKNVVMVRAMRAMGVDYAAEYLQRFGFPAQNIVHTESLALGSASFTPMQVARGYAVMANGGFLVDPWFISKIENDQGGVIFEAKPKVACPECDIPVIYGDTQKSNVLENNDVEDVAISREQQNVSVPMPQLEQANQALVAKTGAQEYAPHVINTPLAFLIKSALNTNIFGEPGWQGTGWRAGRDLQRRDIGGKTGTTNSSKDAWFSGYGPGVVTSVWIGFDDHRRNLGHTTASGAIKDQISGYEGGAKSAQPAWDAYMKAVLEGVPEQPLTPPPGIVTVNIDRSTGQLANGGNSREEYFIEGTQPTQQAVHEVGTTIIDNGEAQELF
Kd [9]: 240 nM
Kd [6]: 67 nM
